Test results taken from the supplement of paper PMC10126150.
± gives the standard deviation of the averaged measurements.
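Further: ATP exposure 15 min at 22 °C before imaging.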

What follows are sequences tested on ATP (assay: switch fluorescence ratio, 500 uM ATP over buffer (Cy3 cluster intensity, sum of 5 cycles each) (fold (ratio)); higher = stronger signal-on switching upon ATP binding; sequences stand for … in TCGTCGGCAGCGTCAGATGTGTATAAGAGACAGTTTTTTTTTTTTTTTTTTTTTTTTT…TC). Conditions: aptamer strand: ATP DNA aptamer (quencher-CACCTGGGGGAGTATTGCGGAGGAAGG + anchor), 100 nM annealed; ATP concentration: 500 uM.
In short: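 The fluorescence ratio divides summed target-cycle Cy3 intensity by summed buffer-cycle Cy3 intensity for each cluster and is averaged per switch-domain sequence. Cy3-labelled switching-strand clusters on a modified Illumina MiSeq flow-cell were annealed to 100 nM quencher-labelled ATP aptamer, then imaged in selection buffer and again after 15 min with 500 uM ATP at 22 °C. Five such cycles were run, with NaOH stripping and re-annealing between them, and clusters outside 100-1000 RFU were excluded.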
TGGAACAGGG was tested, and the switch fluorescence ratio was 1.03 ± 0.036.
AATTCGGATG gave a switch fluorescence ratio of 1.02 ± 0.034.
Work on TTCGGATTCG yielded a switch fluorescence ratio of 0.968 ± 0.03.
Work on CCGAATTGTA yielded a switch fluorescence ratio of 1.03 ± 0.016.
TACTACTTAT showed a switch fluorescence ratio of 1.04 ± 0.053.
In the case of AGAATTGGGT, the switch fluorescence ratio is reported as 0.9964 ± 0.0014.
Sequence TTTACGTTGC has a switch fluorescence ratio of 1.34 ± 0.47.
With GCTTTATTCC the switch fluorescence ratio was 1.06 ± 0.018.
Work on CATGTCGGTT yielded a switch fluorescence ratio of 0.991 ± 0.019.
TTATTTTTGC was tested, and the switch fluorescence ratio was 1.01 ± 0.042.
GGTCCGCATA was tested, and the switch fluorescence ratio was 2.82 ± 1.2.
Sequence CCTTCTCGTC has a switch fluorescence ratio of 1.34 ± 0.096.
Work on CCTTTTTGGT yielded a switch fluorescence ratio of 1.016 ± 0.01.
Sequence AACTATTTGT has a switch fluorescence ratio of 0.978 ± 0.015.
In the case of GGTGGTTTTG, the switch fluorescence ratio is reported as 0.985 ± 0.037.
With GGGCAGAGGA the switch fluorescence ratio was 1.0929 ± 0.00017.
With AAGCCTGAGG the switch fluorescence ratio was 1.015 ± 0.0084.
Work on TTAATAAAAT yielded a switch fluorescence ratio of 0.966 ± 0.018.
TAATGTTTCG gave a switch fluorescence ratio of 0.978 ± 0.013.
CTAGCGGTCG was tested, and the switch fluorescence ratio was 0.997 ± 0.0051.
TTGTGTTAGT showed a switch fluorescence ratio of 0.958 ± 0.01.
In the case of TAATTAGCGC, the switch fluorescence ratio is reported as 1.03 ± 0.016.
GGGTAAATCG was tested, and the switch fluorescence ratio was 0.981 ± 0.068.
Work on ATCCGGGTTC yielded a switch fluorescence ratio of 1 ± 0.015.
With TAAAGAAGAG the switch fluorescence ratio was 0.977 ± 0.03.
In the case of TTTTATGTTA, the switch fluorescence ratio is reported as 0.977 ± 0.032.
For CCTGATTTGG, the switch fluorescence ratio was 0.969 ± 0.03.
TTGTTAGGCC was tested, and the switch fluorescence ratio was 0.995 ± 0.021.
Work on AAAATCATTG yielded a switch fluorescence ratio of 0.9615 ± 0.0027.
With GGCACAGGGG the switch fluorescence ratio was 1.91 ± 0.17.
Sequence ATTCAGACCT has a switch fluorescence ratio of 1.39 ± 0.019.
GAGGTGAGAG gave a switch fluorescence ratio of 1.02 ± 0.058.
With TCATAGTGTT the switch fluorescence ratio was 1.01 ± 0.04.
CATGTAGTCT was tested, and the switch fluorescence ratio was 1.04 ± 0.013.
GGGGTATTTT gave a switch fluorescence ratio of 0.997 ± 0.023.
Sequence ATAAAAATCG has a switch fluorescence ratio of 0.989 ± 0.027.
Sequence ATTGCTTTTT has a switch fluorescence ratio of 0.9834 ± 0.0066.
Sequence GGGTGCACGG has a switch fluorescence ratio of 1.01 ± 0.021.
GGGTTTTGG showed a switch fluorescence ratio of 0.998 ± 0.017.
With TATATGAGGG the switch fluorescence ratio was 1 ± 0.057.
TTTAGTAGGT showed a switch fluorescence ratio of 1.03 ± 0.023.
In the case of ACCGTGTCGT, the switch fluorescence ratio is reported as 0.989 ± 0.095.
TATTATGCGG gave a switch fluorescence ratio of 0.984 ± 0.017.
GTTGACGTTG gave a switch fluorescence ratio of 0.991 ± 0.054.
Work on CTGTTGTTTG yielded a switch fluorescence ratio of 0.9784 ± 0.0016.
AAATCGAGGT was tested, and the switch fluorescence ratio was 0.9917 ± 0.0052.
GGTACCATTG gave a switch fluorescence ratio of 0.991 ± 0.03.
In the case of AAGGGTGCTC, the switch fluorescence ratio is reported as 1.03 ± 0.047.
For CCTAAAGTAG, the switch fluorescence ratio was 1.017 ± 0.0071.
Work on GACAGTTGGG yielded a switch fluorescence ratio of 0.999 ± 0.017.
AGTAGTTTCG gave a switch fluorescence ratio of 0.983 ± 0.037.
ATCCCCGGCC was tested, and the switch fluorescence ratio was 1.03 ± 0.022.
With TTTGTTATAT the switch fluorescence ratio was 0.9839 ± 0.0039.
In the case of GCTGATGGGC, the switch fluorescence ratio is reported as 1.05 ± 0.044.
CCTAGTTGTG showed a switch fluorescence ratio of 1.02 ± 0.016.
Work on TGAGAATTTT yielded a switch fluorescence ratio of 0.996 ± 0.032.
TATATGTAAT showed a switch fluorescence ratio of 1.01 ± 0.038.
Sequence CGTTTCAAGA has a switch fluorescence ratio of 0.9759 ± 0.0019.
GCGAATCGCT gave a switch fluorescence ratio of 0.9675 ± 0.0058.
Work on ATCTATGGGT yielded a switch fluorescence ratio of 0.987 ± 0.01.
TGGGTTTGAG showed a switch fluorescence ratio of 0.99 ± 0.035.
For CGCCGAGATT, the switch fluorescence ratio was 1.08 ± 0.058.
With GGATGGGCTG the switch fluorescence ratio was 1 ± 0.094.
Sequence AATTGTATCA has a switch fluorescence ratio of 1 ± 0.054.
For ATTTATACGC, the switch fluorescence ratio was 1.06 ± 0.038.
TAATTTGAAA was tested, and the switch fluorescence ratio was 1.03 ± 0.07.
With ATTATCTTGG the switch fluorescence ratio was 1.05 ± 0.064.
AACCATACGT showed a switch fluorescence ratio of 1.29 ± 0.032.
For GGAAGAGGGT, the switch fluorescence ratio was 0.997 ± 0.052.
TAGGTTGTAT gave a switch fluorescence ratio of 0.978 ± 0.018.
For CTTTGCATTA, the switch fluorescence ratio was 1.7035 ± 0.00023.
ATCGGAAACT gave a switch fluorescence ratio of 1.03 ± 0.039.
TTAGTAGGTG was tested, and the switch fluorescence ratio was 0.98 ± 0.024.
AAACATAGGA gave a switch fluorescence ratio of 0.992 ± 0.063.
Sequence TGATGGTTCA has a switch fluorescence ratio of 0.941 ± 0.077.
With GGGTTTTTTG the switch fluorescence ratio was 1 ± 0.031.
